First the molecules themselves.
B2: N-terminally biotinylated peptide containing PIP1 of pol η (peptide)
chain: {Biotin-Ahx}-QKKQVTSSKNILSFFTRKK
B4: PCNA, purified (natural protein, yeast, UniProt P15873 1-258, looked up)
chain: MLEAKFEEASLFKRIIDGFKDCVQLVNFQCKEDGIIAQAVDDSRVLLVSLEIGVEAFQEYRCDHPVTLGMDLTSLSKILRCGNNTDTLTLIADNTPDSIILLFEDTKKDRIAEYSLKLMDIDADFLKIEELQYDSTLSLPSSEFSKIVRDLSQLSDSINIMITKETIKFVADGDIGSGSVIIKPFVDMEHPETSIKLEMDQPVDLTFGAKYLLDIIKGSSLSDRVGIRLSSEAPALFQFDLKSGFLQFFLAPKFNDEE
B5: Rad6-Rad18 complex, purified (complex, yeast)
chain 1: MDHQITTASDFTTTSIPSLYQLDTLLRCHICKDFLKVPVLTPCGHTFCSLCIRTHLNNQPNCPLCLFEFRESLLRSEFLVSEIIQSYTSLRSSLLDALRIPKPTPVPENEEVPGPENSSWIELISESESDSVNAADDDLQIVATSERKLAKRSMTDILPLSSKPSKRNFAMFRSERIKKKSKPNEQMAQCPICQQFYPLKALEKTHLDECLTLQSLGKKPKISTTFPTESNPHNKSSSRFKVRTPEVDKSSCGETSHVDKYLNSMMSAEHQRLPKINFTSMTQSQIKQKLSSLGLSTNGTRQNMIKRYNHYEMLWNSNFCDSLEPVDEAELKRQLLSWDVSHNKTPQNSSNKGGISKLMIMKSNGKSSSYRKLLENFKNDKFNRKGWMVMFRKDFARLIREAKMKIKTGSSDSSGSVGHSNDGDGVEKVQSDQGTEDQQMEKDQDTVINEDRVAGERNLPNEDSTDADLSRELMDLNEYSKDPPGNN
chain 2: MSTPARRRLMRDFKRMKEDAPPGVSASPLPDNVMVWNAMIIGPADTPYEDGTFRLLLEFDEEYPNKPPHVKFLSEMFHPNVYANGEICLDILQNRWTPTYDVASILTSIQSLFNDPNPASPANVEAATLFKDHKSQYVKRVKETVEKSWEDDMDDMDDDDDDDDDDDDDEAD
B6: Rad6, purified (enzyme, yeast, UniProt P06104 1-172, looked up)
chain: MSTPARRRLMRDFKRMKEDAPPGVSASPLPDNVMVWNAMIIGPADTPYEDGTFRLLLEFDEEYPNKPPHVKFLSEMFHPNVYANGEICLDILQNRWTPTYDVASILTSIQSLFNDPNPASPANVEAATLFKDHKSQYVKRVKETVEKSWEDDMDDMDDDDDDDDDDDDDEAD

Assay in all cases: BLI
The target of experiment [1] is N-terminally biotinylated peptide containing the R6BD of Rad18 (yeast).
The target is the same in experiment [2]. This is another data set of the same source.
Experiment [3] addresses B6.
The target in experiment [4] is B5.
Experiment [5] deals with B4.
Experiment [6] addresses B2.

Several values for one entry are separate records, joined by “and”; a condition that tells them apart may be missing. Equal values may be shown once. Read-outs that look alike come from different tables or passages of the source. No end group written: not given here. *: point of attachment. Biotin = O=C1N[C@H]2[C@H](CS[C@H]2CCCCC(=O)*)N1; Ahx = NCCCCCC(=O)O

Take “Rad6, purified (from UniProt P06104 1-172) (enzyme)”: the Kd in experiment [1] came out at 2500 nM; in experiment [2], 2800 nM.

B1: N-terminally biotinylated peptide containing PIP2 of pol η (peptide)
chain: {Biotin-Ahx}-ESSKNLSFGEKRLLFSRKRP
With B1, the koff came to 0.6 s⁻¹ in experiment [3], 0.13 s⁻¹ in experiment [4] and 0.3 s⁻¹ in experiment [5]. In addition, the equilibrium dissociation constant (Kd) is 3700 ± 500 nM in experiment [4]; 12000 nM and 13000 nM in experiment [5].

As for B2, the Kd in experiment [3] amounted to 2300 ± 400 nM; in experiment [4] it was 1200 ± 100 nM; in experiment [5] it was 7.2 ± 2.4 nM. Moreover, the koff in experiment [3] was determined as 0.02 s⁻¹; in experiment [4], 0.0008 s⁻¹; in experiment [5], 0.0054 s⁻¹.

B3: PIP-like motif of Pol32 (peptide) (peptide)
chain: NKRLKKQGTLESFFKRKAK
modifications: not fully specified
For the molecule B3, in experiment [3], the Kd came to 600 nM.

In turn, B4 registered a dwell time in experiment [6] of 190 s.

In experiment [6], B5 gave a dwell time of 1300 s.

B6 yielded a dwell time in experiment [6] of 50 s.

For the origin of these results see PMC8240473 (DNA repair, 2020).
